Assays:
[1] = tested on: GFP-FOXO3a localization in U2OS-GFP-FOXO3a cells; test: FOXO3a relocalisation assay, small-molecule inhibitors, U2OS-GFP-FOXO3a; assay type: cell-based, human
Experimental: Cells were transfected with plasmid DNA or siRNA or treated with compounds and incubated for the indicated time. Cells were then fixed in a final concentration of 3.7% formaldehyde by addition of fixative directly to the medium for 10min, then stained with 4 μg/mL Hoechst 33,342 (Invitrogen). For testing of peptides in the U2OS-GFP-FOXO3a cell line, cells were transfected with plasmid DNA using FuGENE 6 (Promega, E2691) as described for the screen. For testing of peptides in the HEK293T cell line, cells were co-transfected with a plasmid encoding the test plasmid and a plasmid encoding GFP-FOXO3a using JetPRIME transfection reagent in 96-well plates. At the indicated time point, cells were then fixed and stained as described above. Leptomycin B was purchased from NEB. PI-103 and BEZ235 were purchased from Selleckchem. GSK690693 was purchased from Sigma. […] Average intensities were calculated for each region and the ratio between nuclear and cytoplasmic GFP-FOXO3a was then calculated. […] Results were then expressed as the percentage of cells with nuclear GFP-FOXO3a. […] Images were acquired and then analyzed using a range of nuclear:cytoplasmic ratios to identify a ratio which reproducibly gave the maximal window between DMSO and PI-103 treated cells. […] Median intensities were calculated for each region and the ratio between nuclear and cytoplasmic GFP-FOXO3a was then calculated.

9J10/14-3-3ε interaction = target: T1, 9J10/14-3-3ε interaction (Homo sapiens, UniProt P62258); test: FP competition, TAMRA-p9J10Min binding to 14-3-3ε; conditions: 10nM TAMRA-p9J10Min, 1.5μM His-14-3-3ε, room temperature 20 min; mean of 3 independent experiments +/- SD; read-out: IC50, FP competition (unlabelled peptide)
T1 construct: A synthetic gene construct encoding full length human 14-3-3ε; made in house; host or cells: E. coli BL21(DE3)
T1 sequence (P62258 1-255): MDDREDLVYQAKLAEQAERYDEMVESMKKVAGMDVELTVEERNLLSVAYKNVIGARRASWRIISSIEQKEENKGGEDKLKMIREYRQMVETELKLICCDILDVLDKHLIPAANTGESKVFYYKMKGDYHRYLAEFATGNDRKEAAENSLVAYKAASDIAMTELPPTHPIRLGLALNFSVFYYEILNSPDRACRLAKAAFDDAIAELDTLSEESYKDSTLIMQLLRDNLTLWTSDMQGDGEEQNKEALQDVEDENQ
Experimental: Protein purity was visualized by running SDS-PAGE. […] Compound dilution plates, black 384 well NBS assay plates and tip racks were loaded into the Cytomat as indicated by the scheduling software. […] Test compounds were diluted to 3X final concentration in the dilution plates. 10 μL of diluted compound was added into each well of the assay plate followed by 10μL of […]-3-3ε and 10μL of TAMRA-p9J10Min. Plates were incubated at room temperature for 20 min on the robot's deck or in the Cytomat before the Fluorescence Polarisation was read using the BMG PheraStar plate reader. Test compounds were assayed in triplicate. […] DMSO controls were run alongside all experimental compounds and % inhibition normalised to these controls. All other experimental conditions were as described above.

[2] = target: TAMRA-9J10Min peptide (5-TAMRA-GRRRN(p-Serine)N-acid) (Streptomyces avermitilis); test: fluorescence polarisation; His-14-3-3ε titrated against 10 nM TAMRA-p9J10Min; 10 mM HEPES, 150 mM NaCl, 0.05% Tween; room temperature
[3] = tested on: transcriptome of HEK293T cells; test: RNA sequencing, differential gene expression; assay type: cell-based, human; conditions: 24 h
Experimental: HEK293T cells were transfected in T75 flasks with plasmid DNA encoding Vector, 9J10^WT, 9J10^AMut, GFP-FOXO3a-AAA or GFP, using JetRPIME transfection reagent. Cells were harvested 24 hr post-transfection. Five independent transfections on different days and using cells of different passage number were carried out for each condition.
Total RNA was isolated using the Qiagen RNeasy Mini Kit (#74104) complete with DNase digestion (Qiagen #79254), according to manufacturers instructions. RNA was submitted to Novogene for transcriptome sequencing. RNA degradation and contamination was monitored on 1% agarose gels. RNA purity was checked using the NanoPhotometer spectrophotometer (IMPLEN, CA, USA), and RNA integrity and quantitation were assessed using the RNA Nano 6000 Assay Kit of the Bioanalyzer 2100 system (Agilent Technologies, CA, USA).
HTSeq v0.6.1 was used to count the read numbers mapped to each gene, and then FPKM of each gene was calculated based on the length of the gene and reads count mapped to this gene. FPKM, […] Per Kilobase of exon model per Million mapped reads, considers the effect of sequencing depth and gene length for the reads count at the same time, and is currently the most commonly used method for estimating gene expression levels ([Mortazavi et al., 2008]).
Differential expression analysis between two conditions/groups (with biological replicates) was performed using the DESeq2 R package (2_1.6.3). DESeq2 provide statistical routines for determining differential expression in digital gene expression data using a model based on the negative binomial distribution. The resulting p values were adjusted using the Benjamini and Hochberg's approach for controlling the False Discovery Rate (FDR). Genes with an adjusted p value of <0.05 found by DESeq2 were assigned as differentially expressed.

[4] = target: 6x His-14-3-3ε (full length human 14-3-3ε) (human) (UniProt P62258); test: ITC; 24 μM 14-3-3ε in the cell titrated with 360 μM TAMRA-9J10; 25°C; 50 mM HEPES, 150 mM NaCl, 0.5 mM DTT; one set of sites model
[5] = target: 6x His-14-3-3ε (full length human 14-3-3ε) (human) (UniProt P62258); test: fluorescence polarisation; competition: unlabelled 9J10 peptide titrated against 10 nM TAMRA-p9J10Min bound to 1.5 μM His-14-3-3ε; 10 mM HEPES, 150 mM NaCl, 0.05% Tween
[6] = target: 6x His-14-3-3ε (full length human 14-3-3ε) (human) (UniProt P62258); test: MST; 20 nM NT-647-labelled 14-3-3ε with cognate peptide (16-point dilution; 1 μM in the competitive assay with CU7218); 10 mM Hepes, 150 mM NaCl, 0.01% Tween 20; 25°C
[7] = GFP-FOXO3a-AAA vs GFP, adjusted p <0.05

Oc1cccc(-c2nc(N3CCOCC3)c3oc4ncccc4c3n2)c1 [PI-103]
nuclear translocation of GFP-FOXO3a ([1]; 1 μM PI-103, positive control): high degree of nuclear translocation of GFP-FOXO3a

CC(C)C[C@H](N)C(=O)N[C@@H](CC(N)=O)C(=O)N[C@@H](CCCNC(=N)N)C(=O)N[C@H](C(=O)N1CCC[C@H]1C(=O)NCC(=O)N[C@@H](CCCNC(=N)N)C(=O)N[C@@H](CCCNC(=N)N)C(=O)N[C@@H](CCCNC(=N)N)C(=O)N[C@@H](CC(N)=O)C(=O)N[C@@H](COP(=O)(O)O)C(=O)N[C@@H](CC(N)=O)C(=O)O)[C@@H](C)O [unlabeled 9J10-derived phosphopeptide]
IC50 (9J10/14-3-3ε interaction): 9800 ± 1200 nM

CCC(=C/[C@H](C)C/C=C/C(C)=C/[C@@H](C)C(=O)[C@@H](C)[C@H](O)[C@@H](C)C/C(C)=C/C(=O)O)/C=C/[C@@H]1OC(=O)C=C[C@@H]1C [leptomycin B]
relocalization of GFP-FOXO3a to the nucleus ([1]; U2OS-GFP-FOXO3a, 3 hr treatment, Figure 1A: PI-103 1 μM, GSK690693 1 μM, leptomycin 2 nM): can be relocalized to the nucleus

6x His-14-3-3ε (full length human 14-3-3ε) (from UniProt P62258 1-255) (natural protein)
Kd [2]: 1470 nM

B1: GFP-FOXO3a-AAA: constitutively active GFP-tagged FOXO3a mutant (protein, UniProt O43524 1-673, looked up, variant T32A S253A S315A)
Forkhead box protein O3: MAEAPASPAPLSPLEVELDPEFEPQSRPRSCAWPLQRPELQASPAKPSGETAADSMIPEEEDDEDDEDGGGRAGSAMAIGGGGGSGTLGSGLLLEDSARVLAPGGQDPGSGPATAAGGLSGGTQALLQPQQPLPPPQPGAAGGSGQPRKCSSRRNAWGNLSYADLITRAIESSPDKRLTLSQIYEWMVRCVPYFKDKGDSNSSAGWKNSIRHNLSLHSRFMRVQNEGTGKSSWWIINPDGGKSGKAPRRRAVAMDNSNKYTKSRGRAAKKKAALQTAPESADDSPSQLSKWPGSPTSRSSDELDAWTDFRSRTNANASTVSGRLSPIMASTELDEVQDDDAPLSPMLYSSSASLSPSVSKPCTVELPRLTDMAGTMNLNDGLTENLMDDLLDNITLPPSQPSPTGGLMQRSSSFPYTTKGSGLGSPTSSFNSTVFGPSSLNSLRQSPMQTIQENKPATFSSMSHYGNQTLQDLLTSDSLSHSDVMMTQSDPLMSQASTAVSAQNSRRNVMLRNDPMMSFAAQPNQGSLVNQNLLHHQHQTQGALGGSRALSNSVSNMGLSESSSLGSAKHQQQSPVSQSMQTLSDSLSGSSLYSTSANLPVMGHEKFPSDLDLDMFNGSLECDMESIIRSELMDADGLDFNFDSLISTQNVVGLNVGNFTGAKQASSQSWVPG
modifications: GFP tag
number of downregulated genes [3, 7]: 2,569 genes
number of upregulated genes [3, 7]: 3,026 genes
CDKN1A (p21^Cip1) expression ([3]; HEK293T): upregulated
CDKN1B (p27^Kip1) expression ([3]; HEK293T): upregulated

B2: TAMRA-9J10 peptide (5-TAMRA-…(p-Serine)N-acid) (peptide)
peptide: LNRTPGRRRNSN
HELM: PEPTIDE1{[CN(C)c1ccc2c(-c3ccc(C(=O)[*:2])cc3C(=O)[O-])c3ccc(N(C)C)cc3[o+]c2c1].L.N.R.T.P.G.R.R.R.N.[O=C([C@H](COP(=O)(O)O)N[*:1])[*:2]].N}$$$$V2.0
SMILES: CC(C)C[C@H](NC(=O)c1ccc(-c2c3ccc(N(C)C)cc3[o+]c3cc(N(C)C)ccc23)c(C(=O)[O-])c1)C(=O)N[C@@H](CC(N)=O)C(=O)N[C@@H](CCCNC(=N)N)C(=O)N[C@H](C(=O)N1CCC[C@H]1C(=O)NCC(=O)N[C@@H](CCCNC(=N)N)C(=O)N[C@@H](CCCNC(=N)N)C(=O)N[C@@H](CCCNC(=N)N)C(=O)N[C@@H](CC(N)=O)C(=O)N[C@@H](COP(=O)(O)O)C(=O)N[C@@H](CC(N)=O)C(=O)O)[C@@H](C)O
Kd [4]: 700 nM

B3: Unlabelled 9J10 peptide (…(p-Serine)N-acid) (peptide)
peptide: LNRTPGRRRNSN
HELM: PEPTIDE1{L.N.R.T.P.G.R.R.R.N.[O=C([C@H](COP(=O)(O)O)N[*:1])[*:2]].N}$$$$V2.0; N-terminus assumed
SMILES: CC(C)C[C@H](N)C(=O)N[C@@H](CC(N)=O)C(=O)N[C@@H](CCCNC(=N)N)C(=O)N[C@H](C(=O)N1CCC[C@H]1C(=O)NCC(=O)N[C@@H](CCCNC(=N)N)C(=O)N[C@@H](CCCNC(=N)N)C(=O)N[C@@H](CCCNC(=N)N)C(=O)N[C@@H](CC(N)=O)C(=O)N[C@@H](COP(=O)(O)O)C(=O)N[C@@H](CC(N)=O)C(=O)O)[C@@H](C)O
IC50 [5]: 9800 nM
EC80 [6]: 1000 nM

— PMC8610377, “Target identification for small-molecule discovery in the FOXO3a tumor-suppressor pathway using a biodiverse peptide library” (Cell Chemical Biology, 2021)
